Patent US20240417475A1 (AFFIMED, published 2024)

What was measured:
[1] = target: T1, human FOLR1 endogenously expressed on tumor cell lines (human, UniProt P15328 25-234); test: flow cytometry on NCI-H2110 cells, 37 C, one-site fit of MFI, mean
T1 construct: whole, on cells; also called FOLR1-positive tumor cell lines; FOLR1+ target cells
Protocol: (§1) Cells were collected and centrifuged at 400×g, 5 min, 4° C. Cell pellets were resuspended in FACS buffer (PBS (Invitrogen, cat.: 392-0434) containing 2% h.i. FCS (Invitrogen, cat.: 10500-064), and 0.1% sodium azide (Sigma, cat.: S8032)) at 1-5×10⁶ cells/mL. 100 μL/well of the cell suspension were transferred into U-shaped, 96-well micro plates (0.1-0.5×10⁶ cells per well), cells were pelleted at 400×g, 5 min, 4° C., and resuspended in 100 μL/well of serial dilutions of the indicated antibodies in FACS buffer. After 40-50 min incubation at 37° C., cells were washed 3-times with ice-cold FACS buffer. […] After the final incubation step, cells were washed 2-times with ice-cold FACS buffer, and the cell pellet was resuspended in 100 μL FACS buffer. Fluorescence intensities of >1×10⁴ viable cells were analyzed by flow cytometry and the median fluorescence intensity (MFI) was determined for each sample.
(§2) Equilibrium dissociation constants (KD) of antibody binding, mean and standard deviation (SD) were calculated by plotting MFI values and fitting a non-linear regression model for one-site binding to hyperbolic dose-response curves using GraphPad Prism for Windows (v9; GraphPad Software; La Jolla California USA).
(§3) Specific antibody binding capacity (SABC) as a marker for FOLR1 expression level on cells was determined on all tumor cell lines using QIFIKIT.

[2] = target: T2, CD16A endogenously expressed on primary human NK cells (human, UniProt P08637 17-254); test: flow cytometry on primary human NK cells, with 10 mg/mL polyclonal human IgG as competitor, range of 4 experiments
T2 sequence (P08637 17-254 limits assumed): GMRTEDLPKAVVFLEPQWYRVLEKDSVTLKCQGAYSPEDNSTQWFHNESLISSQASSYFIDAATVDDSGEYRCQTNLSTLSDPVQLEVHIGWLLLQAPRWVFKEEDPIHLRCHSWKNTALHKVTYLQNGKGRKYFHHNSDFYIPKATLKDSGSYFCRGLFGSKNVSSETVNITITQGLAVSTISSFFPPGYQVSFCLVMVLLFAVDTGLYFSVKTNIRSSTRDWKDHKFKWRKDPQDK
Protocol: (§4) 4° C., and resuspended in 50 μL/well of diluted antibody constructs. […] After 40-50 minutes' incubation at 37° C., cells were washed 3-times with ice-cold FACS buffer. […] After the final incubation step, cells were washed 2-times with ice-cold FACS buffer, and the cell pellet was resuspended in 50 μL FACS buffer. Fluorescence intensity of >1×10⁴ viable cells was analyzed by flow cytometry and the median fluorescence intensity (MFI) was determined for each sample.
(§5) Equilibrium dissociation constants (KD) of antibody binding were calculated by plotting MFI values and fitting a non-linear regression model for one-site binding to hyperbolic dose-response curves using GraphPad Prism.

[3] = target: T2, CD16A endogenously expressed on primary …; test: flow cytometry on primary human NK cells at 37 °C, biotinylated antibody, streptavidin-FITC, in the presence of 10 mg/mL polyclonal human IgG (competitor)
Protocol: (§6) Frozen NK cells were thawed, and viability was determined with trypan blue (Sigma-Aldrich, cat.: T8154). Cells have been centrifuged at 400×g, 5 min, 4° C. Cell pellets were resuspended in FACS buffer PBS (Invitrogen, cat.: 392-0434) containing 2% h.i. FCS (Invitrogen, cat.: 10500-064), and 0.1% sodium azide (Sigma, cat.: S8032) at 2×10⁶ cells/mL. 100 μL/well of the cell suspension were transferred into U-shaped 96 well plates, cells were pelleted at 400×g, 5 min. 4° C., and resuspended in 50 μL/well of diluted antibody constructs. […] After 40-50 minutes' incubation at 37° C., cells were washed 3-times with ice-cold FACS buffer. […] After the final incubation step, cells were washed 2-times with ice-cold FACS buffer, and the cell pellet was resuspended in 50 μL FACS buffer. Fluorescence intensity of >1×10⁴ viable cells was analyzed by flow cytometry and the median fluorescence intensity (MFI) was determined for each sample.

[4] = target: T1, human FOLR1 endogenously expressed on …; test: flow cytometry on HCC-827 cells, 37 C, one-site fit of MFI, mean
Protocol: as §1, §2, §3

[5] = target: T2, CD16A endogenously expressed on primary …; test: flow cytometry on primary human NK cells at 37 °C, biotinylated antibody, streptavidin-FITC, without polyclonal human IgG
Protocol: as §6

[6] = target: T1, human FOLR1 endogenously expressed on …; test: flow cytometry on OVCAR-3 cells, 37 C, one-site fit of MFI, mean
Protocol: as §1, §2, §3

[7] = target: T1, human FOLR1 endogenously expressed on …; test: cell-based or functional assay
[8] = target: T1, human FOLR1 endogenously expressed on …; test: flow cytometry on IGROV-1 cells (FOLR1 high) at 37 °C, FITC anti-human IgG detection
In short: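 Cells in PBS with 2% h.i. FCS and 0.1% sodium azide, 0.1-0.5×10⁶ per well, were incubated 40-50 min with serial antibody dilutions, then washed with ice-cold buffer. Median fluorescence intensity of >1×10⁴ viable cells was determined by flow cytometry.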

[9] = target: T1, human FOLR1 endogenously expressed on …; test: cell-based or functional assay; remark: listed apart in the source
[10] = target: T2, CD16A endogenously expressed on primary …; test: flow cytometry on primary human NK cells, with against without 10 mg/mL polyclonal human IgG
Protocol: as §4, §5

[11] = target: T1, human FOLR1 endogenously expressed on …; test: flow cytometry on IGROV-1 cells, 37 C, one-site fit of MFI, mean
Protocol: as §1, §2, §3

T1 sequence (P15328 25-234): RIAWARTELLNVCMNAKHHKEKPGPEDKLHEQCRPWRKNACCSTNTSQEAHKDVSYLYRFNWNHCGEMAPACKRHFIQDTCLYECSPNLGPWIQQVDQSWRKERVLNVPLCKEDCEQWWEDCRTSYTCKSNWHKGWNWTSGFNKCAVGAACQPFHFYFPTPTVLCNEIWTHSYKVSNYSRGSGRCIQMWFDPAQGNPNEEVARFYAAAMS

B1: scFv-IgAb_387 (FOLR1_1×CD16a3) (bispecific antibody)
heavy: EVQLVESGGGVVQPGRSLRLSCSASGFTFSGYGLSWVRQAPGKGLEWVAMISSGGSYTYYADSVKGRFAISRDNAKNTLFLQMDSLRPEDTGVYFCARHGDDPAWFAYWGQGTPVTVSSASTKGPSVFPLAPSSKSTSGGTAALGCLVKDYFPEPVTVSWNSGALTSGVHTFPAVLQSSGLYSLSSVVTVPSSSLGTQTYICNVNHKPSNTKVDKKVEPKSCDKTHTCPPCPAPEFEGGPSVFLFPPKPKDTLMISRTPEVTCVVVAVSHEDPEVKFNWYVDGVEVHNAKTKPREEQYNSTYRVVSVLTVLHQDWLNGKEYKCKVSNKALPAPIEKTISKAKGQPREPQVYTLPPSREEMTKNQVSLTCLVKGFYPSDIAVEWESNGQPENNYKTTPPVLDSDGSFFLYSKLTVDKSRWQQGNVFSCSVMHEALHNHYTQKSLSLSPGGGGGSGGGGSGGGGSGGGGSGGGGSGGGGSSYELTQPLSVSVALGQTARITCGGNNIGSKSVHWYQQKPGQAPVLVIYQDKKRPSGIPERFSGSNSGNTATLTISRAQAGDEADYYCQVWDDYIVLFGCGTKLTVLGGSGGSGGSGGSGGSGGSGGSQVQLVQSGAEVKKPGASVKVSCKASGYTFTNYYMQWVRQAPGQCLEWMGIINPSGGVTSYAQKFQGRVTMTRDTSTSTVYMELSSLRSEDTAVYYCARGSAYYYDFADYWGQGTLVTVSSG
light: DIQLTQSPSSLSASVGDRVTITCSVSSSISSNNLHWYQQKPGKAPKPWIYGTSNLASGVPSRFSGSGSGTDYTFTISSLQPEDIATYYCQQWSSYPYMYTFGQGTKVEIKRTVAAPSVFIFPPSDEQLKSGTASVVCLLNNFYPREAKVQWKVDNALQSGNSQESVTEQDSKDSTYSLSSTLTLSKADYEKHKVYACEVTHQGLSSPVTKSFNRGEC
modifications: Chemically biotinylated (NHS-PEG4-biotin) in Example 22 only.
notes: Tetravalent bispecific scFv-IgAb; also called FOLR1×CD16A scFv-IgAb_387; FOLR1/CD16A scFv-IgAb_387; copies: 2 + 2
For B1, the Kd [1] was 2.5 nM, the Kd [2] was 14.3 to 36.4 nM and the “EC50 (read off the curve)” value [3] was about 20 nM. For the same binder, the Kd [4] was 2.7 nM, the “EC50 (read off the curve)” value [5] was about 4 nM and the Kd [6] was 1.7 nM. The “EC50 [pM] of ADCC, 4 h calcein release, NK cells E:T 5:1, IGROV-1 cells” value [7] was 1 pM, the “EC50 [pM] of ADCC, A2780 cells” value [7] was 5.5 pM and the “EC50 [pM] of ADCC, HCC-827 cells” value [7] was 2.8 pM. For the same binder, the “EC50 [pM] of ADCC, MDA-MB-231 cells” value [7] was 6.5 pM, the “EC50 [pM] of ADCC, NCI-H2110 cells” value [7] was 0.8 pM and the “EC50 [pM] of ADCC, OVCAR-3 cells” value [7] was 1.1 pM. The “fold-improvement in efficacy vs IgAb_335, ADCC, A2780 cells” value [7] was 2.9 fold, the “fold-improvement in efficacy vs IgAb_335, ADCC, HCC-827 cells” value [7] was 1.9 fold and the “fold-improvement in efficacy vs IgAb_335, ADCC, IGROV-1 cells” value [7] was 0.9 fold. For the same binder, the “fold-improvement in efficacy vs IgAb_335, ADCC, MDA-MB-231 cells” value [7] was 2.1 fold, the “fold-improvement in efficacy vs IgAb_335, ADCC, NCI-H2110 cells” value [7] was 1.2 fold and the “fold-improvement in efficacy vs IgAb_335, ADCC, OVCAR-3 cells” value [7] was 1.4 fold. For the same binder, the “fold-improvement in potency vs IgAb_335, ADCC, A2780 cells” value [7] was 593 fold, the “fold-improvement in potency vs IgAb_335, ADCC, HCC-827 cells” value [7] was 30.8 fold and the “fold-improvement in potency vs IgAb_335, ADCC, IGROV-1 cells” value [7] was 15.1 fold. The “fold-improvement in potency vs IgAb_335, ADCC, MDA-MB-231 cells” value [7] was 54 fold, the “fold-improvement in potency vs IgAb_335, ADCC, NCI-H2110 cells” value [7] was 34.4 fold and the “fold-improvement in potency vs IgAb_335, ADCC, OVCAR-3 cells” value [7] was 40.4 fold. The “EC50 (read off the curve)” value [8] was about 3 nM, the “EC50 of ADCC, 4 h calcein release, NK cells, HCC-827 cells” value [9] was 0.006 nM and the “EC50 of ADCC, 4 h calcein release, NK cells, OVCAR-3 cells” value [9] was 0.0008 nM. The “fold loss in KD induced by IgG” value [10] was 5.3 fold and the Kd [11] was 3.7 nM.
